Assay results published in patent US20160015827A1 (BIOALLIANCE C V, published 2016).

Experiments:
[1] = molecular target: T1, human folate receptor alpha (FRA) (human, UniProt P15328 25-234); assay: flow cytometry on NCI-H292 cells, 3.3 µg/mL
T1 construct: In the assays FRA is the endogenous protein on FRA-expressing human cancer cell lines (SK-OV-3, OVCAR-3, OVCAR-3B, NCI-H2110, NCI-H292); also called human FRA
Method: (§1) 1×10⁵ cells were seeded per well in a v-bottomed 96-well plate and incubated with 50 μl of the unconjugated Abs or the ADCs at titrated concentrations or isotype control antibody human IgG at 10 μg/mL. After 60 minutes of incubation at 4° C., cells were washed once with 200 μl FACS buffer (1×PBS containing 1% FBS), stained with 50 μl of 1 μg/ml goat F(ab′)2-anti-human IgG (H+L)-RPE or goat anti-human IgG-RPE (SOUTHERN BIOTECH®, Cat. No. 2043-09 or 2040-09) in FACS buffer and then incubated at 4° C. for 30 min Cells were washed once with FACS buffer and analyzed by flow cytometer (BD LSR, BD Life Sciences).
(§2) The binding activities of site-specific conjugates of hLK26-Cys variants-Tap18Hr1 were evaluated by flow cytometric analysis in ovarian cancer SK-OV-3 and OVCAR-3B (Table 9-10) and lung cancer NCI-H2110 and NCI-H292 (Table 11-12) cells. The Mean fluorescence intensity (MFI) values in the tables represent binding activity of ADCs at tested concentration. […] The IgG4p variants-Tap18Hr1 conjugates also bind to all the FRA positive cancer cells tested here, but the fluorescent intensities were generally lower than those observed with IgG1 variants. This decrease in binding activity is likely attributed to IgG4 isotype rather than cysteine mutation. Overall, the site-specific conjugated hLK26-Cys variants retain antigen reactivity to the ovarian and lung cancer cells tested.

[2] = molecular target: T1, human folate receptor alpha (FRA); assay: flow cytometry on OVCAR-3B cells, 1.1 µg/mL
Method: as §1, §2

[3] = molecular target: T1, human folate receptor alpha (FRA); assay: flow cytometry on SK-OV-3 cells, 1.1 µg/mL
Method: as §1, §2

[4] = molecular target: T1, human folate receptor alpha (FRA); assay: flow cytometry on NCI-H2110 cells, 3.3 µg/mL
Method: as §1, §2

T1 sequence (P15328 25-234 limits assumed): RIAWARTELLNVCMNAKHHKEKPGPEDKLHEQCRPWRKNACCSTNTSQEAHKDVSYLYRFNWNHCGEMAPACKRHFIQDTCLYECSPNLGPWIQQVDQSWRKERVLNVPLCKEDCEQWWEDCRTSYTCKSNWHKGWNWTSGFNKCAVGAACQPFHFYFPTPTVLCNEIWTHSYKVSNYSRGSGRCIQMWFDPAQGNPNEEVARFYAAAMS

Row | Binder | MFI [1] [MFI] | MFI [2] [MFI] | MFI [3] [MFI] | MFI [4] [MFI]
1 | hLK26-T155C-IgG4p-Tap18Hr1 (antibody, name in EU numbering, Tap18Hr1 linker-drug on the introduced Cys 155 (EU numbering), Site-specific ADC) heavy: not shown light: DIQLTQSPSSLSASVGDRVTITCSVSSSISSNNLHWYQQKPGKAPKPWIYGTSNLASGVPSRFSGSGSGTDYTFTISSLQPEDIATYYCQQWSSYPYMYTFGQGTKVEIKRTVAAPSVFIFPPSDEQLKSGTASVVCLLNNFYPREAKVQWKVDNALQSGNSQESVTEQDSKDSTYSLSSTLTLSKADYEKHKVYACEVTHQGLSSPVTKSFNRGEC | 1180 | 806 | 1890 | 494
2 | hLK26-IgG1 (antibody, Humanized anti-FRA antibody, human IgG1 / kappa, unconjugated; also called naked Ab hLK26-IgG1; unconjugated hLK26-IgG1) heavy: not shown light: DIQLTQSPSSLSASVGDRVTITCSVSSSISSNNLHWYQQKPGKAPKPWIYGTSNLASGVPSRFSGSGSGTDYTFTISSLQPEDIATYYCQQWSSYPYMYTFGQGTKVEIKRTVAAPSVFIFPPSDEQLKSGTASVVCLLNNFYPREAKVQWKVDNALQSGNSQESVTEQDSKDSTYSLSSTLTLSKADYEKHKVYACEVTHQGLSSPVTKSFNRGEC | 1460 | 1150 |  | 
3 | hLK26-L201C-IgG4p-Tap18Hr1 (antibody, name in EU numbering, Tap18Hr1 linker-drug on the introduced Cys 201 (EU numbering), Site-specific ADC with kappa light chain mutant) heavy: not shown light: DIQLTQSPSSLSASVGDRVTITCSVSSSISSNNLHWYQQKPGKAPKPWIYGTSNLASGVPSRFSGSGSGTDYTFTISSLQPEDIATYYCQQWSSYPYMYTFGQGTKVEIKRTVAAPSVFIFPPSDEQLKSGTASVVCLLNNFYPREAKVQWKVDNALQSGNSQESVTEQDSKDSTYSLSSTLTLSKADYEKHKVYACEVTHQGCSSPVTKSFNRGEC |  |  | 1000 | 890
4 | hLK26-T155C-IgG1-Tap18Hr1 (antibody, name in EU numbering, Tap18Hr1 linker-drug on the introduced Cys 155 (EU numbering), Site-specific ADC) heavy: not shown light: DIQLTQSPSSLSASVGDRVTITCSVSSSISSNNLHWYQQKPGKAPKPWIYGTSNLASGVPSRFSGSGSGTDYTFTISSLQPEDIATYYCQQWSSYPYMYTFGQGTKVEIKRTVAAPSVFIFPPSDEQLKSGTASVVCLLNNFYPREAKVQWKVDNALQSGNSQESVTEQDSKDSTYSLSSTLTLSKADYEKHKVYACEVTHQGLSSPVTKSFNRGEC | 1450 | 1060 | 2470 | 649
5 | hLK26-T206C-IgG1-Tap18Hr1 (antibody, name in EU numbering, Tap18Hr1 linker-drug on the introduced Cys 206 (EU numbering), Site-specific ADC with kappa light chain mutant) heavy: not shown light: DIQLTQSPSSLSASVGDRVTITCSVSSSISSNNLHWYQQKPGKAPKPWIYGTSNLASGVPSRFSGSGSGTDYTFTISSLQPEDIATYYCQQWSSYPYMYTFGQGTKVEIKRTVAAPSVFIFPPSDEQLKSGTASVVCLLNNFYPREAKVQWKVDNALQSGNSQESVTEQDSKDSTYSLSSTLTLSKADYEKHKVYACEVTHQGLSSPVCKSFNRGEC |  |  | 1270 | 1180
6 | hLK26-T199C-IgG4p-Tap18Hr1 (antibody, name in EU numbering, Tap18Hr1 linker-drug on the introduced Cys 199 (EU numbering), Site-specific ADC) heavy: not shown light: DIQLTQSPSSLSASVGDRVTITCSVSSSISSNNLHWYQQKPGKAPKPWIYGTSNLASGVPSRFSGSGSGTDYTFTISSLQPEDIATYYCQQWSSYPYMYTFGQGTKVEIKRTVAAPSVFIFPPSDEQLKSGTASVVCLLNNFYPREAKVQWKVDNALQSGNSQESVTEQDSKDSTYSLSSTLTLSKADYEKHKVYACEVTHQGLSSPVTKSFNRGEC |  |  | 966 | 898
7 | hLK26-S442C-IgG1-Tap18Hr1 (antibody, name in EU numbering, Tap18Hr1 linker-drug on the introduced Cys 442 (EU numbering), Site-specific ADC) heavy: not shown light: DIQLTQSPSSLSASVGDRVTITCSVSSSISSNNLHWYQQKPGKAPKPWIYGTSNLASGVPSRFSGSGSGTDYTFTISSLQPEDIATYYCQQWSSYPYMYTFGQGTKVEIKRTVAAPSVFIFPPSDEQLKSGTASVVCLLNNFYPREAKVQWKVDNALQSGNSQESVTEQDSKDSTYSLSSTLTLSKADYEKHKVYACEVTHQGLSSPVTKSFNRGEC | 1280 | 967 | 2080 | 605
8 | hLK26-S442C-IgG4p-Tap18Hr1 (antibody, name in EU numbering, Tap18Hr1 linker-drug on the introduced Cys 442 (EU numbering), Site-specific ADC) heavy: not shown light: DIQLTQSPSSLSASVGDRVTITCSVSSSISSNNLHWYQQKPGKAPKPWIYGTSNLASGVPSRFSGSGSGTDYTFTISSLQPEDIATYYCQQWSSYPYMYTFGQGTKVEIKRTVAAPSVFIFPPSDEQLKSGTASVVCLLNNFYPREAKVQWKVDNALQSGNSQESVTEQDSKDSTYSLSSTLTLSKADYEKHKVYACEVTHQGLSSPVTKSFNRGEC | 1090 | 769 | 1880 | 479
